Measured values taken from patent publication US20240270821A1, “GIP/GLP1/GCG TRI-RECEPTOR AGONISTS AND USES THEREOF” (priority 2023, published 2024).
Starred links: 1 amine or outer side, 2 acyl side, 3 side chain; linkers in the order of their positions; H or OH if unused. Non-standard residues stand in square brackets, D forms with d. Groups on a side chain read outwards from the residue. No end group written: not given here. *: point of attachment. C20 diacid = O=C(O)CCCCCCCCCCCCCCCCCCC(=O)*; C18 diacid = O=C(O)CCCCCCCCCCCCCCCCC(=O)*; αMePhe(2-F) = C[C@](N)(Cc1ccccc1F)C(=O)O; γGlu = O=C(O)[C@H](CCC(=O)[*:2])N[*:1]; NMeY = CN[C@@H](Cc1ccc(O)cc1)C(=O)O; αMeF = C[C@](N)(Cc1ccccc1)C(=O)O; AEEA = NCCOCCOCC(=O)O; Aib = CC(C)(N)C(=O)O

T1: human GIP receptor (human) (UniProt P48546)
T1 sequence (looked up): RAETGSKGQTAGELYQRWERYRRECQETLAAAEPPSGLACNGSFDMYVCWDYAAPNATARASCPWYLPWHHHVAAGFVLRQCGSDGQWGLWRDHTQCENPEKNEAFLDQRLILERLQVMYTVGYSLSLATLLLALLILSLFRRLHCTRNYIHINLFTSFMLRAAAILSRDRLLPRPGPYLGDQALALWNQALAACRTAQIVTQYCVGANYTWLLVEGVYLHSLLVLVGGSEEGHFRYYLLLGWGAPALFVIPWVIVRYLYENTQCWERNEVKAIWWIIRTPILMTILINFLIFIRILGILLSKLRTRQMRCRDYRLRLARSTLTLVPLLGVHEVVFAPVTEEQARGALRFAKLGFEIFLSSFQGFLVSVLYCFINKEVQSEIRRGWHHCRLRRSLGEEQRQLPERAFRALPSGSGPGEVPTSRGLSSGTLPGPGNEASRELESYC


Key:
Assay in all cases: cell-based or functional assay
[1] = biological target: Pro-Link-tagged Human GLP-1R (human) (UniProt P43220)
Sequence of Pro-Link-tagged Human GLP-1R (human) (P43220 24-463): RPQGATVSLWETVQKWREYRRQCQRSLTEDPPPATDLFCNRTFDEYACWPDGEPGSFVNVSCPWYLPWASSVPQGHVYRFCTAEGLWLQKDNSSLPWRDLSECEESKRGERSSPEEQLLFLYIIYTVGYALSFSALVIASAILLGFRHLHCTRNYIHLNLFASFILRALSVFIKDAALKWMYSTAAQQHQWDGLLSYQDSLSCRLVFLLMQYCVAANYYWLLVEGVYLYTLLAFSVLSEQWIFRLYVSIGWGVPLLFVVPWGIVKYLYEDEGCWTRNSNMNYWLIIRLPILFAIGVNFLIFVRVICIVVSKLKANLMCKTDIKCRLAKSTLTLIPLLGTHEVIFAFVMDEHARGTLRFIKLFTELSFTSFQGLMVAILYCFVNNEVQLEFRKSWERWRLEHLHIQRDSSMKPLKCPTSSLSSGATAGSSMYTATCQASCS

hGLP-1R = hGLP-1R (Homo sapiens, UniProt P43220)
Sequence of hGLP-1R (P43220 24-463): as above

[2] = biological target: T1, human GIP receptor (human)
[3] = biological target: human glucagon receptor (human) (UniProt P47871)
Sequence of human glucagon receptor (human) (P47871 26-477): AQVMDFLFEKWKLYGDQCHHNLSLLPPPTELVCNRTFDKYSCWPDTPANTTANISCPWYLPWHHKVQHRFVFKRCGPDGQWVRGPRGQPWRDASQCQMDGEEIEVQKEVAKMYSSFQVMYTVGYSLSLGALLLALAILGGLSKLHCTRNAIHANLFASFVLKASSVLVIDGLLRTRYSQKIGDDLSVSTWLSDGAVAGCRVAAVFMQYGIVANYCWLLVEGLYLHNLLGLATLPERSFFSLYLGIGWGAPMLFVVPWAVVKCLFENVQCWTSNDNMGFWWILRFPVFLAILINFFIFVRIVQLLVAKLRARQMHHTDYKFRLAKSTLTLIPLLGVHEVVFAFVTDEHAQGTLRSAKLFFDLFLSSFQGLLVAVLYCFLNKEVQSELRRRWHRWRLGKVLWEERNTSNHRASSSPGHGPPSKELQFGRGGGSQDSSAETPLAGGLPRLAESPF

% Stimulation Max [1] [%] | hGLP1R β-arrestin Rel EC50 [1] [nM] | Relative cAMP EC50 (hGLP-1R) [nM] | cAMP Rel EC50 (in the presence of 1% HSA) (hGLP-1R) [nM] | Relative cAMP EC50 [2] [nM] | cAMP Rel EC50 (in the presence of 1% HSA) [2] [nM] | Relative cAMP EC50 [3] [nM] | cAMP Rel EC50 (in the presence of 1% HSA) [3] [nM] | cAMP Rel EC50 (1% HSA) (hGLP-1R) [nM] | cAMP Rel EC50 (1% HSA) [2] [nM] | cAMP Rel EC50 (1% HSA) [3] [nM] | Binder
83.5 | 3.94 | 0.34 | 90 | 0.43 | 53.4 | 2.68 | 878 |  |  |  | HXQGTXTSDYSILLDKKAAXAFIEYLIETGPSSGEPPPSEG (Aib, αMeF(2F), AEEA-γGlu-C20 diacid on Lys, amide; synthetic construct; SITE 2: note = 2-Aminoisobutyric Acid; SITE 6: note = alpha-methyl-2-fluoro-L-phenylalanine; SITE 17: note = Lysine is chemically modified through conjugation of the epsilon-amino group of the Lysine side chain with (2-[2-(2-Amino-ethoxy)-ethoxy]-acetyl)-(gamma-Glu)-CO-(CH2) 18-) [Example 290]
35.3 | 27.7 | 2.16 | 554 | 0.318 | 54.1 | 1.07 | 518 |  |  |  | YXQGTFTSDYSIXLDKKAAXAFIEYLLEGGPSSGEPPPSEG (Aib, αMeL; lysine acylated (AEEA)2-γGlu-C20 diacid; C-terminal amide; synthetic construct; SITE 2: note = 2-Aminoisobutyric Acid; SITE 13: note = alpha-methyl-leucine; SITE 17: note = Lysine is chemically modified through conjugation of the epsilon-amino group of the Lysine side chain with (2-[2-(2-Amino-ethoxy)-ethoxy]-acetyl)2-(gamma-Glu)-CO-(CH2 )18-CO2H; SITE 20:) [Example 294]
86.4 | 3.29 | 0.277 |  | 0.138 |  | 1.04 |  | 70.9 | 41.3 | 1570 | HXQGTXTSDYSILLDKKAAXAFIEYLIEAGPSSGEPPPSEG (not fully specified; non-natural residues, acylated Lys, C-terminal amide; synthetic construct; SITE 2: note = 2-Aminoisobutyric Acid; SITE 6: note = alpha-methyl-2-fluoro-L-phenylalanine; SITE 17: note = Lysine is chemically modified through conjugation of the epsilon-amino group of the Lysine side chain with (2-[2-(2-Amino-ethoxy)-ethoxy]-acetyl)-(gamma-Glu)-CO-(CH2) 18-) [Example 298]
33.5 | 60.2 | 2.96 |  | 0.626 |  | 3.26 |  | 1130 | 325 | 2320 | [NMeY][Aib]QGT[αMeF]TSDYSSLLDKIAAKAFIEYLLEGGPSSGEPPPSEG-NH2 (not fully specified (residue 20)) [Example 297]
56.6 | 11.2 | 0.621 |  | 0.7 |  | 4.47 |  | 73.6 | 91.8 | 1370 | [NMeY][Aib]QGT[αMeF]TSDYSILLDKQAAKAFVQWLIEGGPSSGEPPPSEG-NH2 (not fully specified (residue 20)) [Example 302]
54.6 | 11.9 | 0.994 | 295 | 0.0587 | 9.63 | 4.01 | 1740 |  |  |  | Y[Aib]QGT[αMePhe(2-F)]TSDYSILLDKIAQK([AEEA-γGlu-C20 diacid])AFIEYLLEGGPSSGEPPPSEG-NH2 [Example 293]
59.1 | 13.2 | 0.641 |  | 0.722 |  | 6.73 |  | 82.4 | 81.8 | 1500 | [NMeY][Aib]QGT[αMeF]TSDYSILLDKQAAKAFVQWLIAGGPSSGEPPPSEG-NH2 (not fully specified (residue 20)) [Example 301]
47.2 | 6.72 | 0.808 |  | 0.32 |  | 9.28 |  | 251 | 424 | 3910 | Y[Aib]QGT[αMePhe(2-F)]TSDYSKLLDKQAQK([AEEA-γGlu-C20 diacid])QFIEYLIEGGPSSGEPPPSEG-NH2 [Example 309]
70.8 | 9.86 | 0.836 |  | 0.446 |  | 1.68 |  | 209 | 65.3 | 1880 | Y[Aib]QGT[αMeF]TSDYSILLDKIAAKNFIEYLVEGGPSSGEPPPSEG-NH2 (not fully specified (residue 20)) [Example 307]
